We go through one molecule from patent US20060280745A1 (MEDICAL RESEARCH COUNCIL, published 2006).

For the assay, the target named is T1, murine PrP^c (mouse, UniProt P04925 23-230).
T1 construct: also called mouse PrP^c; normal cellular prion protein
Put plainly: immunoblot of whole spleen homogenate (FIG. 5).

T1 sequence (P04925 23-230 limits assumed): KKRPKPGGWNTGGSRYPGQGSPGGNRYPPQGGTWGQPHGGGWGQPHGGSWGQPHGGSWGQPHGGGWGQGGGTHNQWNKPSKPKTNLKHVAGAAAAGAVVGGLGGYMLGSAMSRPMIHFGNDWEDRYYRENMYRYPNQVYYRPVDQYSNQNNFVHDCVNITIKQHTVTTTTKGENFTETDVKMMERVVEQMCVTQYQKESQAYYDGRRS

B1: ICSM 18 (antibody, V domains shown)
VH: EVQLQQSGPELVKPGSSVKISCKASRNTFTDYNLDWVKQSHGKTLEWIGNVYPNNGVTGYNQKFRGKATLTVDKSSSTAYMELHSLTSEDSAVYYCALYYYDVSYWGQGTLVTVSA
VL: QIVLTQSPAIMSASPGEKVTMTCSASSSVSYMHWYQQKSGTSPKRWIYDTSKLASGVPARFSGSGSGTSYSLTISSMEAEDAATYFCHQWRSNPYTFGGGTKLEIKR
notes: also called biotinylated ICSM 18
With B1, the binding result is recorded as “binds”.
